Data: the nanobody polyreactivity screen of Harvey et al. (2022)

experiment: yeast display, Sf9 membrane polyspecificity reagent, FACS + sequencing; frameworks hold sequencing errors
Outline: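 In a synthetic yeast display library (Saccharomyces cerevisiae BJ5465), nanobody expression was induced with galactose for 36–48 hours. FACS gates were set low and high (top ~1%) using anti-HA fluorescence for expression and streptavidin fluorescence for binding of the Sf9 membrane reagent. Each polyreactivity label is drawn from the gate of origin.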

| Sequence | polyreactivity (PSR sort gate) |
| --- | --- |
| QVQLVESGGGLVQAGGSLRISCAASAITFEPYAMGWYRQAPGTEREFVAAISRSGGSTYYADSVKGRFTISRDNAKNTVYLQMNSLKPEDTAVYYCAADSWIGPDYGHDYRGQGTQVTVSS | high polyreactivity |
| QVQLVESGGGLVQAGGSLRISCAASARTLKRNAMGWYRQAPGKERELVAAISFRVTNTYYADSVKGRFTISRDNAKNTVYLQMYSLKPEDTAVYYCAVPDSRFYSPRRVSPHDYWGQGTQVTVSS | high polyreactivity |
| QVQLVESGGGLVQAGGSLRISCAASESIFPVYAMGWYRQAPGKERELVATITDGGGDTYYADSLKGRFTISRDNAKNTVYLQMNSLKPEDTAVYYCAARSMPEWSAYWYDYWGQGTQVTVSS | low polyreactivity |
| QVQLVESGGGLVQAGGSLRISCAASGATFYYYAMGWYRQAPGKERELVASTYYADSVKGRFSISRDNAKNTVYLQMKSLKPEDTAVYYCAKRFKATYEYDYWGQGTQVTVSS | low polyreactivity |
| QVQLVESGGGLVQAGGSLRISCAASGFIIYGYVMGWYRQAPGKERELVAAINSSSGRTYYADSVKGRFTISRDNAKNTVYLQMNSLKPEDTAVYYCAAYYYCSYDGTPYDYWGQGTQVTVSS | low polyreactivity |
| QVQLVESGGGLVQAGGSLRISCAASGFTFPLYAMGWYRQAPGKERELVAAINYRGSSTYYADSVKGRFTISRDNAKNTVYLHMNSLKPEYTAVYYCNAADPVWNQVYWGSNEYDYWGQGTQVTVSS | high polyreactivity |
| QVQLVESGGGLVQAGGSLRISCAASGFTFRSYSMGWYRQAPGKERELVAAITSTGGRTYYADSVKGRFTISRDNAKNTVYLQMNILNPEDTAVYYWAAGRKHFGPVHFGYWGQGTQVTVSW | high polyreactivity |
| QVQLVESGGGLVQAGGSLRISCAASGFTFRYNAMGWYRQAPVKERELVATISSRGGSTNYADSVKGRFTISRDNAKNTVYLLMNSLKPEDTAVYYCNNVRYRDLKRYDYWGQGTQVTVSS | high polyreactivity |
| QVQLVESGGGLVQAGGSLRISCAASGFTLSYYAMGWYRQAPGKERELVASISAIGGITYYADSVKGRFTISRDNAKNTVYLQMNSLKPEDTAVYYCARQGRRYRRFDSWGQGTQVTVSS | high polyreactivity |
| QVQLVESGGGLVQAGGSLRISCAASGFTVWGYAMGWYRQAPGKERELVAGITTRGGSTYYADSVKGRFTISRDNAKNTVYLQMNSLKPEDTAVYYCNVVSSTRTYRYDYWGQGTQVTVSS | high polyreactivity |
| QVQLVESGGGLVQAGGSLRISCAASGIILGYYPMGWYRQAPGKERELVAAINWSGASTYYADSVKGRFTISRDNAKNTVYLQMNCLKPEDTAVYDCNAVGYYYRGTGEYDYWGQGTQVTVSS | high polyreactivity |
| QVQLVESGGGLVQAGGSLRISCAASGITFDQNAMGWYRQAPGKEREFVGAITRGSSTNYADSVKGRFTISRDNAKNTVYLQMNSLKPEETAVYYCNADGYARFRTYYCRDTREYDYWGQGTQVTVSS | low polyreactivity |
| QVQLVESGGGLVQAGGSLRISCAASGITFLEYAMGWYRQAPGKERELVATINSGGSTNYADSVKGRFTISRDNAKNTVYLQMNSLKQEDNAVYYCSADYGSDYTKGDYWGQGTQVTVSS | low polyreactivity |
| QVQLVESGGGLVQAGGSLRISCAASGITFSYYAMGWYIQAPGKERELVAAINSGGGSTYYADSVKGRFTISRDNAKNTVYLQMNRLKPEDTAVYYFAARYRSRYDYYYDRDYWGQGTQVTVSS | low polyreactivity |
| QVQLVESGGGLVQAGGSLRISCAASGITFYANVMGWYRQAPGKARELVAAISARRGSTYYADSVKGRFTISRDNAKNTVYLQMNSLKPEDTAVYYCATREAYRQQGGYGYWGQGTQVTVSS | high polyreactivity |
| QVQLVESGGGLVQAGGSLRISCAASGITFYGYDMGWYRQAPGKERELVAAISKSGGSTHYADSVKGRFTISRDNAKNTVYLQMNSLKPEDTAVYYCAAAYWTRLRRMDYWGQGTQVTVSS | high polyreactivity |
| QVQLVESGGGLVQAGGSLRISCAASGLTFDRYAMGWYRQAPGKERELVAAISGSGSSTYYADSAKGRFTISRDNAKNTVYLQMNSLKPEDTAVYYCAADRDLGYDTRYNYWGQGTQVTVSS | low polyreactivity |
| QVQLVESGGGLVQAGGSLRISCAASGLTFRLYVMGWYRQAPGKERELVATISRSGGSTHYADSVKGRFTISRDNAKNTVYLQMNSLKPEDTAVYDCAARLFYFGSDFDYWGQGTQVTVSS | high polyreactivity |
| QVQLVESGGGLVQAGGSLRISCAASGMIFDWYTMGWYRQAPGKERELVAAISWRGGRTYYADSVKGRFTISRDNAQNTVYLQMNSLKPEDTAVYYCAAEGLFTGRVSRFADDHWGQGTQVTVSS | low polyreactivity |
| QVQLVESGGGLVQAGGSLRISCAASGNIFSYYAMGWYRQAPGKERELVAAISSGGSTYYADSVKGRFTISRDNGMNTVYLQMNSLKPEDTAVYYCNKLAYVGRYGYWGQGTEVTVSS | high polyreactivity |
| QVQLVESGGGLVQAGGSLRISCAASGNIFVDYAMGWYTQAPGKERELVATITRTGDSTTYADSVKGRFTISRDNAKNTVYLQMNSLKPEDTAVYYCNTDLRLVYRTKGFISWGYDYWGQGTQVTVSS | low polyreactivity |

| Sequence | polyreactivity (PSR sort gate) |
| --- | --- |
| QVQLVESGGGLVQAGGSLRISCAASGPTFGYNGMGWYRQAPGKERELVAAINSGGNTNYADSVKGRFTISRDNAKYTVDFQLNSLKPEDTAVYYCAKYGTLYEPVPNEYDYWGQGTQVTVSS | low polyreactivity |
| QVQLVESGGGLVQAGGSLRISCAASGPTFPLYAMGGNRQAPGKERELVAAIRTGGSTNYADSVKGRFTISRDNAKNTVYLQMNSLKPEDTAVSYCAAVQRTDRSAHYSWGHGTQVTVSS | low polyreactivity |
| QVQLVESGGGLVQAGGSLRISCAASGRIFAGYSMGWYRQAPGKERELVAAIRTRGGSTYYADSVKGRFTISRDKAKNTVYLQMNSLKPEDTEVYYCAATPTWYIWYTYDYWGQGPQVTVSS | high polyreactivity |
| QVQLVESGGGLVQAGGSLRISCAASGRIFDTYVMGWYRQAPGKERELVAAISGSGGSTYYADSVKGRFTISRDNAKNTVYLQMNSLKPEDTAVYYCAAARRYYAYRYDYWGQGTQVTVSS | high polyreactivity |
| QVQLVESGGGLVQAGGSLRISCAASGRIFGGYAMGWYRQAPGKERELVAAITSGARTKYADSVKGRFTISRDNAKNTVYLQMNSLKPEDTAVYYCAADGFYDGDYWGQGTQVTVSS | high polyreactivity |
| QVQLVESGGGLVQAGGSLRISCAASGRIFGLYAMGWYRQAPGKERELVATINNSGGSTYYADSVKGRFTISRDNAKNTVYLEMKSLKPEDTAVYYCNAEFLYAASFIEYDYWGQVTQVTVSS | high polyreactivity |
| QVQLVESGGGLVQAGGSLRISCAASGRIFGTNAMGWYRQAPGKERELVADITSGGSTNYADSVKGRFTISRDNAKNTVYLQMNSLKPEDTAVYYCAAVVIGDLRWYRDEYWGQGTQVTVSS | low polyreactivity |
| QVQLVESGGGLVQAGGSLRISCAASGRIFKYYGMGWYRQAPGKERELVAAITRGDSTNYADSVKGRFTISRDNAKNTVYLQMNSLKPEETAVYYCNVGTRRGYDYWGQGTQVTVSS | high polyreactivity |
| QVQLVESGGGLVQAGGSLRISCAASGRIFNYYDMGWYRQAPGKERELVAAISWRGTSTRYADSVKGRFTISRDNAKNTVYLQMQSLKPEDTAVYYCAADDYARRFSFKYDYWGQGTQVTVSS | high polyreactivity |
| QVQLVESGGGLVQAGGSLRISCAASGRIFRGYAMGWYRQAPGKEMELVAGITTSGGDTSYADSVKGRFTISRDNAKNTVYLQMNSLKPEDTAVYYCNASPFYYRPRYPMDYWGQGTQVTVSS | high polyreactivity |
| QVQLVESGGGLVQAGGSLRISCAASGRIFSYNAMGWYRQAPGKERELVASISRGGSTYADSVKGRFTISRDNAKNTVYLQMNRLQPADTAVYYCNAVHFSYEYDYWGQGTQVTVSS | high polyreactivity |
| QVQLVESGGGLVQAGGSLRISCAASGRIFTPNAMGWYRQAPGKERELVAAITWSGDNTYADSVKGRFTISRDNAKKTVYLHMNTLKPEDTAVYYCAAAYGYGHKKYGYWGQGTQVTVSS | low polyreactivity |
| QVQLVESGGGLVQAGGSLRISCAASGRIFYNNDMAWYRQAPGKERELVAAITVRGSITYYADSVKGRFTISRDNAKTTVYLHMNSLKPEDTAVYYCATEWVNRLYSWGQGTQVTVSS | low polyreactivity |
| QVQLVESGGGLVQAGGSLRISCAASGRIFYYYDMGWYRQAPGKERELVAAISRSGGRTYYADSVKGRFTISRDNANNTVYLHMNSLKPEDTAVYYCNVVRQGGTLGYDYWGQGTQVTVSS | high polyreactivity |
| QVQLVESGGGLVQAGGSLRISCAASGRILYLNAMGWYRQAPGIEREFVAAISKSGGTTYYADSVKGRFTISRDKAKHTDYLQMNSLKPEDTAVFYCAVDIVRCGRDSWGQGTQVTVSS | low polyreactivity |
| QVQLVESGGGLVQAGGSLRISCAASGRIYNRNAMGWYRQAPGKERELVAAIRSDGTTNYADSVKGRFTISRDNAKNTVYLQMISLKPEDTAVYYCNAEEGYHWWIIPEEDDYWGQGTQVTVSS | low polyreactivity |
| QVQLVESGGGLVQAGGSLRISCAASGRIYVYNVMGWSRQAPGKETELVAAISWGTGSTYADSVKGRFTISRDNAKNTVYLQMNSLKPEDTAVYYCAAAADYYYDHDYWGQGTQVTVSS | low polyreactivity |
| QVQLVESGGGLVQAGGSLRISCAASGRTFCNNAMGWYRQAPGKERELVAAITSTGSRTYYADSVKGRFTISRDNAKNTVYLQMNSLKPEDTAVYYCNRVSHLDYYWGQGTQVTVSS | high polyreactivity |
| QVQLVESGGGLVQAGGSLRISCAASGRTFLVYTMGWYRQAPGKERELVAAISWSDGSTYYADSVKGRFTISRDNAKNTVYLQMNSLKPEDTAVYYCAARRTGYLYRYGYWGQGTQVTVSS | low polyreactivity |
| QVQLVESGGGLVQAGGSLRISCAASGRTFSRYAMGWYRQAPGKERELVAAITRGGGGTYYADSVKGRFTISRDNAKNTVYLQMNSLKPEDTAVYYCNRVLLPGPQYQWGKAYDYWGQGTQVTVSS | high polyreactivity |
